Biological target: T1, recombinant His-tagged NRF2, full length (UniProt Q16236 1-605)
T1 sequence: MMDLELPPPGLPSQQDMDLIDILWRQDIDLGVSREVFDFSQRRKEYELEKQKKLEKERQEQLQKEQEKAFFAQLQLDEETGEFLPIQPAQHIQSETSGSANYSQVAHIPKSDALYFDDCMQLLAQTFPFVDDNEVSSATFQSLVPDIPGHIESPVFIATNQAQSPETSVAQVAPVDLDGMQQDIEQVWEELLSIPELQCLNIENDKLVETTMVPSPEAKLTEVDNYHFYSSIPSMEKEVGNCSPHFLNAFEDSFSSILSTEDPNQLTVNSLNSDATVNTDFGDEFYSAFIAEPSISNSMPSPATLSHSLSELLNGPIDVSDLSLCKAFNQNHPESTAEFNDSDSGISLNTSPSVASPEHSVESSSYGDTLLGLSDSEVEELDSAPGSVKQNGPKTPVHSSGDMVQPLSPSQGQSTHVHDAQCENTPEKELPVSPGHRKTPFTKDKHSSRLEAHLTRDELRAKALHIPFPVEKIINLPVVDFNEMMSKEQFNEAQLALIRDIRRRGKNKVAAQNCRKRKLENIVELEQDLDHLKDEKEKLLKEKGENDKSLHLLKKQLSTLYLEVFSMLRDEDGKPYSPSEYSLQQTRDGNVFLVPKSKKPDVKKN
Assay: MST

B1: recombinant αB-crystallin (natural protein)
chain: MDIAIHHPWIRRPFFPFHSPSRLFDQFFGEHLLESDLFPTSTSLSPFYLRPPSFLRAPSWFDTGLSEMRLEKDRFSVNLDVKHFSPEELKVKVLGDVIEVHGKHEERQDEHGFISREFHRKYRIPADVDPLTITSSLSSDGVLTVNGPRKQVSGPERTIPITREEKPAVTAAPKK
Kd: 859 ± 70.1 nM

— article PMC12273567 (The Journal of Biological Chemistry, 2025)
